We go through 1 molecule from PMC7513893 (Redox Biology, 2020).

The target of test [1] is ADAM17 cytoplasmic domain, wild type (ADAM17cyto^WT), recombinant (UniProt P78536 693-824). Nature of the test: ELISA. For orientation: In an ELISA, binding on a coated surface is turned into a signal by an enzyme label.
For test [2], the target named is ADAM17 cytoplasmic domain mutant F730A (ADAM17cyto^F730A), recombinant (UniProt P78536 693-824, F730A). The test is described as follows: ELISA.
Sequence of ADAM17 cytoplasmic domain mutant F730A (ADAM17cyto^F730A), recombinant (P78536 693-824 F730A): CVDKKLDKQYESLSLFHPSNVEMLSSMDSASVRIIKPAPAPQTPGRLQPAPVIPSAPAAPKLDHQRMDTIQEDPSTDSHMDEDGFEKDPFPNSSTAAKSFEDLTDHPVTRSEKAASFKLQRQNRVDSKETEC

Sequence of ADAM17 cytoplasmic domain, wild type (ADAM17cyto^WT), recombinant (P78536 693-824): as the sequence (P78536 693-824 F730A) above, with A38F counted along it

B1: Thioredoxin-1 (Trx-1), recombinant (enzyme, human, UniProt P10599 1-105, looked up)
chain: MVKQIESKTAFQEALDAAGDKLVVVDFSATWCGPCKMIKPFFHSLSEKYSNVIFLEVDVDDCQDVASECEVKCMPTFQFFKKGQKVGEFSGANKEKLEATINELV
With B1, the binding result in test [1] and in test [2] was “binds” each time.
